What was measured:
[1] = target: soluble CD44 variants containing exon v6 in normal human serum (human) (UniProt P16070); experiment: sandwich ELISA, coating antibody, serum 2 diluted 1:160, detection BU-52-peroxidase
[2] = target: soluble CD44 variants containing exon v6 in normal human serum (human) (UniProt P16070); experiment: sandwich ELISA, coating antibody, serum 1 diluted 1:320, detection BU-52-peroxidase
[3] = target: soluble CD44 variants containing exon v6 in normal human serum (human) (UniProt P16070); experiment: sandwich ELISA, coating antibody, serum 2 diluted 1:40, detection BU-52-peroxidase
[4] = target: soluble CD44 variants containing exon v6 in normal human serum (human) (UniProt P16070); experiment: sandwich ELISA, coating antibody, serum 2 diluted 1:5, detection BU-52-peroxidase
[5] = target: soluble CD44 variants containing exon v6 in normal human serum (human) (UniProt P16070); experiment: sandwich ELISA, coating antibody, serum 1 diluted 1:5, detection BU-52-peroxidase
[6] = target: soluble CD44 variants containing exon v6 in normal human serum (human) (UniProt P16070); experiment: sandwich ELISA, coating antibody, serum 2 diluted 1:640, detection BU-52-peroxidase
[7] = target: soluble CD44 variants containing exon v6 in normal human serum (human) (UniProt P16070); experiment: sandwich ELISA, coating antibody, serum 1 diluted 1:20, detection BU-52-peroxidase
[8] = target: soluble CD44 variants containing exon v6 in normal human serum (human) (UniProt P16070); experiment: sandwich ELISA, coating antibody, serum 2 diluted 1:20, detection BU-52-peroxidase
[9] = target: soluble CD44 variants containing exon v6 in normal human serum (human) (UniProt P16070); experiment: sandwich ELISA, coating antibody, serum 1 diluted 1:160, detection BU-52-peroxidase
[10] = target: soluble CD44 variants containing exon v6 in normal human serum (human) (UniProt P16070); experiment: sandwich ELISA, coating antibody, serum 1 diluted 1:80, detection BU-52-peroxidase
[11] = target: soluble CD44 variants containing exon v6 in normal human serum (human) (UniProt P16070); experiment: sandwich ELISA, coating antibody, serum 2 diluted 1:80, detection BU-52-peroxidase
[12] = target: soluble CD44 variants containing exon v6 in normal human serum (human) (UniProt P16070); experiment: sandwich ELISA, coating antibody, serum 1 diluted 1:40, detection BU-52-peroxidase
[13] = target: soluble CD44 variants containing exon v6 in normal human serum (human) (UniProt P16070); experiment: sandwich ELISA, coating antibody, serum 2 diluted 1:10, detection BU-52-peroxidase
[14] = target: soluble CD44 variants containing exon v6 in normal human serum (human) (UniProt P16070); experiment: sandwich ELISA, coating antibody, serum 1 diluted 1:10, detection BU-52-peroxidase
[15] = target: soluble CD44 variants containing exon v6 in normal human serum (human) (UniProt P16070); experiment: sandwich ELISA, coating antibody, serum 1 diluted 1:640, detection BU-52-peroxidase
[16] = target: soluble CD44 variants containing exon v6 in normal human serum (human) (UniProt P16070); experiment: sandwich ELISA, coating antibody, serum 2 diluted 1:320, detection BU-52-peroxidase
[17] = target: CD44 (variant isoforms not specified) on COLO 205 cells (human) (UniProt P16070); experiment: 3H-labelled antibody on ethanol-fixed COLO 205 cells
[18] = target: CD44 (variant isoforms not specified) on CX-1 cells (human) (UniProt P16070); experiment: 3H-labelled antibody on ethanol-fixed CX-1 cells
[19] = target: CD44 (variant isoforms not specified) on HCT-116 cells (human) (UniProt P16070); experiment: 3H-labelled antibody on ethanol-fixed HCT-116 cells
[20] = target: CD44 (variant isoforms not specified) on HT-29 cells (human) (UniProt P16070); experiment: 3H-labelled antibody on ethanol-fixed HT-29 cells
[21] = target: human variant CD44 (exons v3-v10) on the cell surface of CHO-CD44var cells (human) (UniProt P16070); experiment: 3H-labelled antibody on ethanol-fixed CHO CD44var cells
[22] = target: CD44 (variant isoforms not specified) on A431 cells (human) (UniProt P16070); experiment: 3H-labelled antibody on ethanol-fixed A431 cells
[23] = target: CD44 (variant isoforms not specified) on CaCo cells (human) (UniProt P16070); experiment: 3H-labelled antibody on ethanol-fixed CaCo cells
[24] = target: soluble CD44 variants containing exon v6 in normal human serum (human) (UniProt P16070); experiment: sandwich ELISA, serum of donor 3, calibrated on recombinant soluble CD44v3-v10; reference VFF-7
[25] = target: soluble CD44 variants containing exon v6 in normal human serum (human) (UniProt P16070); experiment: sandwich ELISA, serum of donor 4, calibrated on recombinant soluble CD44v3-v10; reference VFF-7
[26] = target: soluble CD44 variants containing exon v6 in normal human serum (human) (UniProt P16070); experiment: sandwich ELISA, sera of 6 healthy donors, calibrated on recombinant soluble CD44v3-v10; reference VFF-7
[27] = target: soluble CD44 variants containing exon v6 in normal human serum (human) (UniProt P16070); experiment: sandwich ELISA, serum of donor 2, calibrated on recombinant soluble CD44v3-v10; reference VFF-7
[28] = target: soluble CD44 variants containing exon v6 in normal human serum (human) (UniProt P16070); experiment: sandwich ELISA, serum of donor 1, calibrated on recombinant soluble CD44v3-v10; reference VFF-7
[29] = target: soluble CD44 variants containing exon v6 in normal human serum (human) (UniProt P16070); experiment: sandwich ELISA, serum of donor 6, calibrated on recombinant soluble CD44v3-v10; reference VFF-7
[30] = target: soluble CD44 variants containing exon v6 in normal human serum (human) (UniProt P16070); experiment: sandwich ELISA, serum of donor 5, calibrated on recombinant soluble CD44v3-v10; reference VFF-7

antibody VFF-4
absorption (sandwich ELISA signal) (absorption at 450 nm) [1]: 0.336 | absorption (sandwich ELISA signal) (absorption at 450 nm) [2]: 0.026 | absorption (sandwich ELISA signal) (absorption at 450 nm) [3]: 1.21 | absorption (sandwich ELISA signal) (absorption at 450 nm) [4]: 1.69 | absorption (sandwich ELISA signal) (absorption at 450 nm) [5]: 0.406 | absorption (sandwich ELISA signal) (absorption at 450 nm) [6]: 0.054 | absorption (sandwich ELISA signal) (absorption at 450 nm) [7]: 0.296 | absorption (sandwich ELISA signal) (absorption at 450 nm) [8]: 1.56 | absorption (sandwich ELISA signal) (absorption at 450 nm) [9]: 0.05 | absorption (sandwich ELISA signal) (absorption at 450 nm) [10]: 0.109 | absorption (sandwich ELISA signal) (absorption at 450 nm) [11]: 0.699 | absorption (sandwich ELISA signal) (absorption at 450 nm) [12]: 0.207 | absorption (sandwich ELISA signal) (absorption at 450 nm) [13]: 1.76 | absorption (sandwich ELISA signal) (absorption at 450 nm) [14]: 0.378 | absorption (sandwich ELISA signal) (absorption at 450 nm) [15]: 0.012 | absorption (sandwich ELISA signal) (absorption at 450 nm) [16]: 0.138

antibody VFF-7
specific binding (bound antibody per 400 000 cells) [17]: 0 fmol | absorption (sandwich ELISA signal) (absorption at 450 nm) [1]: 0.061 | absorption (sandwich ELISA signal) (absorption at 450 nm) [2]: 0.008 | specific binding (bound antibody per 400 000 cells) [18]: 0.19 fmol | absorption (sandwich ELISA signal) (absorption at 450 nm) [3]: 0.468 | absorption (sandwich ELISA signal) (absorption at 450 nm) [4]: 1.28 | specific binding (bound antibody per 400 000 cells) [19]: 1.44 fmol | absorption (sandwich ELISA signal) (absorption at 450 nm) [5]: 0.417 | absorption (sandwich ELISA signal) (absorption at 450 nm) [6]: 0.018 | absorption (sandwich ELISA signal) (absorption at 450 nm) [7]: 0.179 | specific binding (bound antibody per 400 000 cells) [20]: 0 fmol | absorption (sandwich ELISA signal) (absorption at 450 nm) [8]: 0.857 | absorption (sandwich ELISA signal) (absorption at 450 nm) [9]: 0.03 | absorption (sandwich ELISA signal) (absorption at 450 nm) [10]: 0.062 | specific binding (bound antibody per 400 000 cells) [21]: 33.5 fmol | absorption (sandwich ELISA signal) (absorption at 450 nm) [11]: 0.208 | specific binding (bound antibody per 400 000 cells) [22]: 8.19 fmol | absorption (sandwich ELISA signal) (absorption at 450 nm) [12]: 0.072 | specific binding (bound antibody per 400 000 cells) [23]: 0.03 fmol | absorption (sandwich ELISA signal) (absorption at 450 nm) [13]: 1.19 | absorption (sandwich ELISA signal) (absorption at 450 nm) [14]: 0.289 | absorption (sandwich ELISA signal) (absorption at 450 nm) [15]: 0.007 | absorption (sandwich ELISA signal) (absorption at 450 nm) [16]: 0.014

antibody VFF-18
VFF-18/VFF-7 (ratio of the serum levels read by the two ELISAs) [24]: 3.91 | specific binding (bound antibody per 400 000 cells) [17]: 2.88 fmol | absorption (sandwich ELISA signal) (absorption at 450 nm) [1]: 1.67 | absorption (sandwich ELISA signal) (absorption at 450 nm) [2]: 0.318 | specific binding (bound antibody per 400 000 cells) [18]: 9.48 fmol | absorption (sandwich ELISA signal) (absorption at 450 nm) [3]: 3.05 | absorption (sandwich ELISA signal) (absorption at 450 nm) [4]: 3.29 | specific binding (bound antibody per 400 000 cells) [19]: 20.2 fmol | absorption (sandwich ELISA signal) (absorption at 450 nm) [5]: 3.14 | VFF-18/VFF-7 (ratio of the serum levels read by the two ELISAs) [25]: 3.31 | absorption (sandwich ELISA signal) (absorption at 450 nm) [6]: 0.546 | absorption (sandwich ELISA signal) (absorption at 450 nm) [7]: 2.63 | specific binding (bound antibody per 400 000 cells) [20]: 26.1 fmol | absorption (sandwich ELISA signal) (absorption at 450 nm) [8]: 3.16 | absorption (sandwich ELISA signal) (absorption at 450 nm) [9]: 0.594 | VFF-18/VFF-7 (mean value of the ratio over 6 donors) [26]: 3.53 | VFF-18/VFF-7 (ratio of the serum levels read by the two ELISAs) [27]: 2.66 | absorption (sandwich ELISA signal) (absorption at 450 nm) [10]: 1.08 | specific binding (bound antibody per 400 000 cells) [21]: 46.5 fmol | absorption (sandwich ELISA signal) (absorption at 450 nm) [11]: 2.54 | specific binding (bound antibody per 400 000 cells) [22]: 38.7 fmol | VFF-18/VFF-7 (ratio of the serum levels read by the two ELISAs) [28]: 4.17 | VFF-18/VFF-7 (ratio of the serum levels read by the two ELISAs) [29]: 3.48 | absorption (sandwich ELISA signal) (absorption at 450 nm) [12]: 1.78 | specific binding (bound antibody per 400 000 cells) [23]: 12.6 fmol | absorption (sandwich ELISA signal) (absorption at 450 nm) [13]: 3.32 | VFF-18/VFF-7 (ratio of the serum levels read by the two ELISAs) [30]: 3.67 | absorption (sandwich ELISA signal) (absorption at 450 nm) [14]: 3.06 | absorption (sandwich ELISA signal) (absorption at 450 nm) [15]: 0.159 | absorption (sandwich ELISA signal) (absorption at 450 nm) [16]: 0.988

From patent US5916561
